From US20240262899A1 come the findings set out here.

In test [1] the target is citrullinated histone H3 (CitH3) peptide (human). The test is described as follows: sandwich ELISA, Ab coated 1 ug/mL, CitH3 at 50 pg/mL. Background: In an ELISA, binding on a coated surface is turned into a signal by an enzyme label.
For test [2] the target is unchanged. The experiment in a line: sandwich ELISA, Ab coated 1 ug/mL, CitH3 at 1000 pg/mL.
Test [3] has the same target. The test is described as follows: sandwich ELISA, Ab coated 1 ug/mL, CitH3 at 20000 pg/mL.
Test [4] shares this target. The experiment in a line: sandwich ELISA, Ab coated 1 ug/mL, CitH3 at 0 pg/mL (blank).

B1: Y1128-VH1/VL1 (antibody, V domains shown)
VH: EVQLVQSGAEVKKPGATVKISCKASGFNIKDYYMHWMQQRPGKGLEWIGWIDPENGNTIYDPKFQGRVTITSDTSTDTAYLELSSLRSEDTAVYYCAPFGNYVWFAYWGQGTLVTVSS
VL: DVVMTQSPLSLPVTLGQPASISCRSSQSIVHSNGITYLEWFQQRPGQSPRLLIYKVSNRFSGVPDRFSGSGSGTDFTLKISRVEAEDVGVYYCFQGSHVPFTFGQGTKLEIKR
With B1, the ELISA signal (raw data) in test [1] amounted to 2950; in test [2], 2910; in test [3], 3700; in test [4], 2780.
